Reference: publication PMC7144919
Read-outs that look alike come from different tables or passages of the source.

Legend:
Hfq Core [1] = target: T1, Hfq Core (Escherichia coli, UniProt P0A6X3 2-69); experiment: fluorescence polarization
Hfq WT (Table 3) [2] = target: T2, Hfq WT (Table 3) (Escherichia coli, UniProt P0A6X3 2-69); experiment: fluorescence polarization
Hfq WT (Table 3) [3] = target: T2, Hfq WT (Table 3); experiment: fluorescence polarization; remark: listed apart in the source
Hfq F42W [4] = target: T3, Hfq F42W (Escherichia coli, UniProt P0A6X3 2-69, F42W); experiment: tryptophan fluorescence quenching
Hfq(2-69:N13A) = Hfq(2-69:N13A) (Escherichia coli, UniProt P0A6X3 2-69, N13A); experiment: fluorescence polarization
Hfq(2-69:Q41E) = Hfq(2-69:Q41E) (Escherichia coli, UniProt P0A6X3 2-69, Q41E); experiment: fluorescence polarization
Hfq(2-69:R16A/R17A) = Hfq(2-69:R16A/R17A) (Escherichia coli, UniProt P0A6X3 2-69, R16A;R17A); experiment: fluorescence polarization
Hfq(2-69:R16A) = Hfq(2-69:R16A) (Escherichia coli, UniProt P0A6X3 2-69, R16A); experiment: fluorescence polarization
Hfq(2-69:Q41A) = Hfq(2-69:Q41A) (Escherichia coli, UniProt P0A6X3 2-69, Q41A); experiment: fluorescence polarization
Hfq full length WT = Hfq full length WT (Escherichia coli, UniProt P0A6X3 2-102); experiment: fluorescence polarization
Hfq Core [5] = target: T1, Hfq Core; experiment: fluorescence polarization; remark: listed apart in the source
Hfq F42W [6] = target: T3, Hfq F42W; experiment: tryptophan fluorescence quenching; remark: listed apart in the source
Sa Hfq = Sa Hfq (Staphylococcus aureus, UniProt A0A0H3JV59 1-77); experiment: fluorescence polarization

B1: 3-base A-tract DNA (dsDNA)
DNA 1: CGGCAAACGAAACGGCAAACGAAACGGCAAACGAAA
DNA 2: TTTCGTTTGCCGTTTCGTTTGCCGTTTCGTTTGCCG
- Kd (Hfq Core [1]): 19.4 ± 6 nM

Binder: AAAAAAAAAAAAAAAAAAAAAAAAAAA (ssRNA) [A27]
- binding result (Hfq WT (Table 3) [2]): binds

Binder: AUUUUUUCGAAUCGAAAGGUUCA (structured_RNA) [site A]
- Kd (Hfq WT (Table 3) [3]): 22.7 ± 1.5 nM
- binding result (Hfq F42W [4]): binds

B2: xtal DNA, 30 bp with three 6-bp A-tracts (dsDNA)
DNA 1: CGGCAAAAAACGGCAAAAAACGGCAAAAAA
DNA 2: TTTTTTGCCGTTTTTTGCCGTTTTTTGCCG
- Kd (Hfq(2-69:N13A)): 6 ± 2.3 nM
- Kd (Hfq(2-69:Q41E)): 47.1 ± 4.7 nM
- Kd (Hfq Core [1]): 4.9 ± 2.4 nM
- Kd (Hfq(2-69:R16A/R17A)): 66.8 ± 10.6 nM
- Kd (Hfq(2-69:R16A)): 34.1 ± 7 nM
- Kd (Hfq(2-69:Q41A)): 300 ± 33.6 nM
- Kd (Hfq full length WT): 175 ± 4.5 nM
- Kd (Hfq Core [5]): 94 ± 8 nM
- binding result (Hfq F42W [6]): binds
- Kd (Sa Hfq): 6.4 µM

B3: RacA DNA 14 bp (dsDNA)
DNA 1: TGACGCCGGCGTCA
DNA 2: TGACGCCGGCGTCA
- Kd (Hfq Core [1]): 16.2 ± 3.7 nM

Binder: CAUGAUUCUUAUACGUACGACGGAAGAUGAGAAUUAUGGU (structured_RNA) [Hairpin 2]
- Kd (Hfq WT (Table 3) [3]): 61.5 ± 18.3 nM
- binding result (Hfq F42W [6]): binds
